The results in this text go back to paper PMC12032115.

This data set addresses PTPRF (UniProt P10586). The data set is described as follows: flow cytometry. Background: A flow cytometer gives signals particle by particle.

Sequence of PTPRF (P10586 30-1907): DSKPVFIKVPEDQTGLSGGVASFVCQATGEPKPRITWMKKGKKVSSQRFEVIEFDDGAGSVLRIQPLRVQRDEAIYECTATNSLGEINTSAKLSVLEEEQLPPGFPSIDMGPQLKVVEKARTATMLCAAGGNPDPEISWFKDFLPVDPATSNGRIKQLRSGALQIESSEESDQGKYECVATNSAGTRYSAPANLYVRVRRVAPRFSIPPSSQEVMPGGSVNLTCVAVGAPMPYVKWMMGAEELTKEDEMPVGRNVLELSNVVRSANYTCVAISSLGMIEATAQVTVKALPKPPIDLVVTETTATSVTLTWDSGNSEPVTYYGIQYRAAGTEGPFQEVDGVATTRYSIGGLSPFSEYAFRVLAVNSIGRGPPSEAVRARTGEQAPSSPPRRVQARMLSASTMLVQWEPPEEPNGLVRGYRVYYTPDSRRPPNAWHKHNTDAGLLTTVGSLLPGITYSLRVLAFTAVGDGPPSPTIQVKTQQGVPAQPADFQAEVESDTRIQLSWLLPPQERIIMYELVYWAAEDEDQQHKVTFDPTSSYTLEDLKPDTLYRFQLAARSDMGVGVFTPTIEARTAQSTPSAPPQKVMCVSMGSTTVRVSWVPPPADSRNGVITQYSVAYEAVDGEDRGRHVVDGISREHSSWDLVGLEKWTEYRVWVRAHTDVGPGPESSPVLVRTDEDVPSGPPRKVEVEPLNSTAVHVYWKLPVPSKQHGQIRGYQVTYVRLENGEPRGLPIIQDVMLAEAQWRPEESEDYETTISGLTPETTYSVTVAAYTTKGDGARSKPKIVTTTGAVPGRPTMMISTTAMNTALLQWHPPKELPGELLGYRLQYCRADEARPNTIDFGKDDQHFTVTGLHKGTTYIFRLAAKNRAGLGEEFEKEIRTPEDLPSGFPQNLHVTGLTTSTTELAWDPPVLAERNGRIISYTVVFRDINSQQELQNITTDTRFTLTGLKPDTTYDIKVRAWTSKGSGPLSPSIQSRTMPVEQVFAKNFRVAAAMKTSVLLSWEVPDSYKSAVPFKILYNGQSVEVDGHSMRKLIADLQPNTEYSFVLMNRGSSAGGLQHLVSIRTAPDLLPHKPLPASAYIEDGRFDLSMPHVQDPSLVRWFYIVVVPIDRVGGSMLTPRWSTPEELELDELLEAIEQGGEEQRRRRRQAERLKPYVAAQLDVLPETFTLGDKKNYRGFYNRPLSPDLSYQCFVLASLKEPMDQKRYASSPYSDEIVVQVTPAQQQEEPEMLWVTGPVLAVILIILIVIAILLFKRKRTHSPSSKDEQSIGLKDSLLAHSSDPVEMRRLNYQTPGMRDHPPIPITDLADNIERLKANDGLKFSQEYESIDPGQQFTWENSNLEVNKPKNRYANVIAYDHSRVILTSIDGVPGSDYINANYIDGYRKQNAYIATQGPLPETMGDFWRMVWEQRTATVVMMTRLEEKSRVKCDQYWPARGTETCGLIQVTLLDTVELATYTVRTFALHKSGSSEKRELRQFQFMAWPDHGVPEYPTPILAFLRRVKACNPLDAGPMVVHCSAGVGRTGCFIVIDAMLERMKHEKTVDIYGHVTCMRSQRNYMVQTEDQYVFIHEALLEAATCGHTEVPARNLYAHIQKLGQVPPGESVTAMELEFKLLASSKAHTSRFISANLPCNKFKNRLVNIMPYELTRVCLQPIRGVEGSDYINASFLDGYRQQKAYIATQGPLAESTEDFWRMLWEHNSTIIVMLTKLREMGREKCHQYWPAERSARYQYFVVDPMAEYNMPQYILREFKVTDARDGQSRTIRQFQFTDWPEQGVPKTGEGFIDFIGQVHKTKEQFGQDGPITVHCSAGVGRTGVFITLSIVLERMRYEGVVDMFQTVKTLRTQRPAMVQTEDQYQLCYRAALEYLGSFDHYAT

As a reminder, the Kd is the free concentration of one partner at which half of the binding sites on the other are occupied at equilibrium, for simple one-to-one binding. High values mean a looser complex, low ones a tighter complex. For the sequence “TGGAGGATATAGGTTGGCTTAGGTGGCTTTGCGTTGGGTGTGGTGCATATCCTCCA [ZAJ4a]”, the equilibrium dissociation constant (Kd) worked out at 23.3 nM.
